In IntAct's records for PubMed 15546919:

B1: Arf-GAP with Rho-GAP domain, ANK repeat and PH domain-containing protein 3 (Mus musculus), Q8R5G7 (parent)
chain: MAAPQDLDIAVWLALVHLEQYADTFRRHGLATAGAAQHLGHEELRHLGISATGHRKRILRLLRAGSAEGFLDSHLDNTMEPTPSPAPDAQPPKPVPKPRTVFGLSNPATAQRPGLSPIFWDPEVSRNSECTQRSSPLLPSSSEQPSVPNTMEMMPNAIYFGLDLRGRAQAAQDVTPDSSQATVPTPAFRPTTGTVHIMDPGCLYYGVQPVGIPGASDRRDGRGVCQERAEHRQDLETREDAGYASLELPGDSILSLPTQDAETSDDLISPYASFSSTADRPVPLLSGWLDKLSPQGNYVFQRRFVQFNGRSLMYFGSDKDPFPKGVIPLTAIEMTRSSKDNKFQVITGQRVFVFRTESEAQRDLWCSTLQSCLKEQRLLGHPRPPHPPRPLRTGTLELRGHKAKVFAALIPGELALYKSEQAFSLGIGICFIELQGCSVRETKSRSFDLLTPHRCFSFTAESGGARQSWAAALQEAVTETLSDYEVAEKVWSNPANRHCADCRASRPDWAAVNLGVVICKQCAGQHRALGSGISKVQSLKLDTSVWSNEIVQLFIVLGNDRANCFWAGALPPGEGLHPDSAPGPRGEFISRKYKLGLFRKPHPRHPDHSQLLQALCAAMAGPNLLKNMAQLLCVETSEGEEPLSPSALNGSLLSLLPSDSPGVYNEVVVPATYRGFLYCGSISNKAGAPPLRRGRDAPPRLWCVLGAALEMFASESSPEPLSLLQPQDIVCLGVSPPPADPGDLDRFPFSFELILTGGRIQHFATDGADSLEAWISAVGKWFSPLSCHQLLGPGLLRMGRLWLRSPSHAGLAPGLWLSGFGLLRGDHLFLCPAPGPGPPAPEDMVHLRRLQEISVVSAADTPDKKEHLVLVETGRTLYLQGEGRLDFAAWNTAIGGAAGGGGTGLQEQQMSRGDIPIIVDACISFVTQHGLRLEGVYRKGGARARSLRLLAEFRRDARSVKLRPREHFVEDVTDTLKRFFRELDDPVTSARLLPRWREAAELSQKNQRLEKYKEVISCLPRVNRRTLATLIGHLYRVQKCASLNQMCTRNLALLFAPSVFQTDGRGEHEVRVLQELIDGYISVFDIDSDQAAQIDLEVSLITTWKDVQLSQAGDLIMEVYIEQQLPDNCVTLKVSPTLTAEELTNQVLEMRGAASGTDLWVTFEILEHGELERPLHPKEKVLEQALQWCQLPEPCSASLLLRKVSMAHAGCLFTGVRRESPRVGLLRCREEPPRLLGNRFQERFFLVRGRCLLLLKEKKSSKPEREWSLEGAKVYLGIRKKLKPPTLWGFTLILEKMHLCLSCMDEEEMWDWTTSILKAQHDDQQSVVLRRRSSSDLARQKFGTMPLLPIRGDDSGATLLSANQTLRRLHNRRTLSMFFPMKSPQGSVEEQDELEEPVYEEPVYEEVGAFPELTKDTTFSSTWEWSAKSDPSLTSQRSFDQPPLSKASMLGHEERIPDPPPGPPSKSSSQARGSLEEQLLQELNNLILRKGEPASCPESSSQPTSPQAPSPTSLPTPTPSLPTQPPCTSNPPSSQPLT

Variants of: B1
Details: with src_human SRC

Variant | effect of a mutation on the interaction
Y1399F;Y1404F | decreasing interaction
